The source of these data is article doi:10.1101/2025.03.05.641625.

Experiment [1] addresses SARS-CoV-2 core RTC with nsp13.1 bound (RTC-nsp13.1) (SARS-CoV-2) (UniProt P0DTD1). The experiment can be described thus: magnetic tweezers.
Experiment [2] deals with SARS-CoV-2 core replication-transcription complex (nsp12-polymerase, nsp7, nsp8) (SARS-CoV-2) (UniProt P0DTD1). The experiment can be described thus: magnetic tweezers.

Turning to “SARS-CoV-2 nsp13-helicase (wild type) (from UniProt P0DTD1 5325-5925) (enzyme)”, the Ka in experiment [1] came to 4.6e+08 M⁻¹; in experiment [2] it was 2.3e+08 M⁻¹.
